Several values for one entry are separate records, joined by “and”; a condition that tells them apart may be missing. Identical values can stand only once.
Conditions: Aspergillus oryzae (strain ATCC 42149 / RIB 40), 25 °C, Fluorescence, reversible: yes, whole UniProt chain shown

B1: Guanyl-specific ribonuclease T1 wild type, P00651 (protein)
chain: MMYSKLLTLTTLLLPTALALPSLVERACDYTCGSNCYSSSDVSTAQAAGYQLHEDGETVGSNSYPHKYNNYEGFDFSVSSPYYEWPILSSGDVYSGGSPGADRVVFNENNQLAGVITHTGASGNNFVECT
denaturant m value (pH 2.92, GdnHCl, formate 30 mM): 2.89 kcal/mol/M | denaturant midpoint (higher = more stable) (pH 2.92, GdnHCl, formate 30 mM): 2.78 M | unfolding free energy (pH 2.92, GdnHCl, formate 30 mM): 8.04 kcal/mol | unfolding free energy (pH 2.92, Urea, formate 30 mM): 6.2 kcal/mol | denaturant m value (pH 3.02, GdnHCl, formate 30 mM): 2.89 kcal/mol/M | denaturant midpoint (higher = more stable) (pH 3.02, GdnHCl, formate 30 mM): 1.8 M | unfolding free energy (pH 3.02, GdnHCl, formate 30 mM): 5.2 kcal/mol | unfolding free energy (pH 3.02, Urea, formate 30 mM): 5.2 kcal/mol | denaturant m value (pH 6.98, GdnHCl, MOPS 30 mM): 3.09 kcal/mol/M and 2.58 kcal/mol/M | denaturant midpoint (higher = more stable) (pH 6.98, GdnHCl, MOPS 30 mM): 2.99 M and 2.98 M | unfolding free energy (pH 6.98, GdnHCl, MOPS 30 mM): 9.24 kcal/mol and 7.7 kcal/mol | denaturant m value (pH 9.89, GdnHCl, glycine 30 mM): 3.27 kcal/mol/M | denaturant midpoint (higher = more stable) (pH 9.89, GdnHCl, glycine 30 mM): 2.57 M | unfolding free energy (pH 9.89, GdnHCl, glycine 30 mM): 8.4 kcal/mol | unfolding free energy (pH 9.89, Urea, glycine 30 mM): 8.6 kcal/mol | denaturant m value (pH 9.91, GdnHCl, glycine 30 mM): 2.58 kcal/mol/M | denaturant midpoint (higher = more stable) (pH 9.91, GdnHCl, glycine 30 mM): 1.36 M | unfolding free energy (pH 9.91, GdnHCl, glycine 30 mM): 3.52 kcal/mol

— FireProtDB (doi:10.1021/bi00462a019)
